Experimental data as given in the supplement of paper PMC9112550, “Optimization of the antimicrobial peptide Bac7 by deep mutational scanning” (BMC Biology, 2022).

Each sequence was assayed on Escherichia coli TOP10 (assay: shrunken log2 fold change of peptide-encoding DNA abundance (4.5 h post-induction vs induction); higher = less antimicrobial activity (less host growth inhibition)). Conditions: time post-induction: 4.5 h; library: site-saturation at positions 5, 18, 19, 20.
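Note: peptides expressed intracellularly from a pBAD plasmid library in pooled LB shake-flask culture, induced with 0.3% L-arabinose, DNA abundance read by NGS, three biological replicates, DESeq2 with apeglm shrinkage.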

Sequence | shrunken log2 fold change
RRIRKRPPRLPRPRPRPHTIPRP | 0.00577
RRIRKRPPRLPRPRPRPHTKPRP | -0.0306
RRIRKRPPRLPRPRPRPHTRPRP | 0.29
RRIRKRPPRLPRPRPRPHTWPRP | 0.0484
RRIRKRPPRLPRPRPRPHVWPRP | 0.82
RRIRKRPPRLPRPRPRPHWPPRP | 0.31
RRIRKRPPRLPRPRPRPHYNPRP | -0.428
RRIRKRPPRLPRPRPRPIAWPRP | 0.155
RRIRKRPPRLPRPRPRPICKPRP | 0.363
RRIRKRPPRLPRPRPRPIDKPRP | 0.0797
RRIRKRPPRLPRPRPRPIDLPRP | -0.0822
RRIRKRPPRLPRPRPRPIDTPRP | -0.0729
RRIRKRPPRLPRPRPRPIDWPRP | 0.29
RRIRKRPPRLPRPRPRPIEIPRP | -0.0122
RRIRKRPPRLPRPRPRPIFAPRP | 0.454
RRIRKRPPRLPRPRPRPIFDPRP | 0.205
RRIRKRPPRLPRPRPRPIFEPRP | 0.381
RRIRKRPPRLPRPRPRPIFFPRP | 0.414
RRIRKRPPRLPRPRPRPIFTPRP | 0.118
RRIRKRPPRLPRPRPRPIHKPRP | -0.211
RRIRKRPPRLPRPRPRPIIFPRP | -0.147
RRIRKRPPRLPRPRPRPIIWPRP | 0.0809
RRIRKRPPRLPRPRPRPIKFPRP | -0.131
RRIRKRPPRLPRPRPRPIKQPRP | -0.089
RRIRKRPPRLPRPRPRPIKTPRP | -0.0153

Sequence | shrunken log2 fold change
RRIRKRPPRLPRPRPRPILAPRP | 0.0492
RRIRKRPPRLPRPRPRPILDPRP | 0.15
RRIRKRPPRLPRPRPRPINPPRP | 0.0583
RRIRKRPPRLPRPRPRPINQPRP | -0.166
RRIRKRPPRLPRPRPRPIPFPRP | 0.347
RRIRKRPPRLPRPRPRPIPPPRP | 0.385
RRIRKRPPRLPRPRPRPIPVPRP | -0.193
RRIRKRPPRLPRPRPRPIQLPRP | -0.0418
RRIRKRPPRLPRPRPRPIRAPRP | 0.14
RRIRKRPPRLPRPRPRPISQPRP | 0.113
RRIRKRPPRLPRPRPRPITTPRP | -0.174
RRIRKRPPRLPRPRPRPITWPRP | 0.0399
RRIRKRPPRLPRPRPRPIVCPRP | -0.00674
RRIRKRPPRLPRPRPRPIWKPRP | -0.00277
RRIRKRPPRLPRPRPRPIWLPRP | 0.00836
RRIRKRPPRLPRPRPRPIWWPRP | 0.0844
RRIRKRPPRLPRPRPRPIYNPRP | -0.0567
RRIRKRPPRLPRPRPRPKARPRP | 0.0808
RRIRKRPPRLPRPRPRPKAVPRP | -0.11
RRIRKRPPRLPRPRPRPKAYPRP | 0.0431
RRIRKRPPRLPRPRPRPKCGPRP | 0.0305
RRIRKRPPRLPRPRPRPKCNPRP | -0.0341
RRIRKRPPRLPRPRPRPKCPPRP | 0.165
RRIRKRPPRLPRPRPRPKEHPRP | 0.405
RRIRKRPPRLPRPRPRPKEYPRP | 0.191

Sequence | shrunken log2 fold change
RRIRKRPPRLPRPRPRPKFHPRP | 0.161
RRIRKRPPRLPRPRPRPKFPPRP | 0.134
RRIRKRPPRLPRPRPRPKGEPRP | 0.201
RRIRKRPPRLPRPRPRPKGIPRP | 0.106
RRIRKRPPRLPRPRPRPKHPPRP | 0.068
RRIRKRPPRLPRPRPRPKLGPRP | 0.0679
RRIRKRPPRLPRPRPRPKLMPRP | 0.267
RRIRKRPPRLPRPRPRPKNSPRP | -0.0637
RRIRKRPPRLPRPRPRPKNTPRP | -0.0285
RRIRKRPPRLPRPRPRPKPDPRP | 0.861
RRIRKRPPRLPRPRPRPKQEPRP | -0.104
RRIRKRPPRLPRPRPRPKQIPRP | 0.0984
RRIRKRPPRLPRPRPRPKRMPRP | 0.296
RRIRKRPPRLPRPRPRPKRNPRP | 0.689
RRIRKRPPRLPRPRPRPKRSPRP | 0.667
RRIRKRPPRLPRPRPRPKSDPRP | -0.015
RRIRKRPPRLPRPRPRPKSYPRP | -0.177
RRIRKRPPRLPRPRPRPKTNPRP | 0.485
RRIRKRPPRLPRPRPRPKTWPRP | 0.344
RRIRKRPPRLPRPRPRPKVMPRP | 0.0802
RRIRKRPPRLPRPRPRPKYWPRP | 0.255
RRIRKRPPRLPRPRPRPLANPRP | 0.029
RRIRKRPPRLPRPRPRPLAQPRP | 0.801
RRIRKRPPRLPRPRPRPLCHPRP | 0.252
RRIRKRPPRLPRPRPRPLCPPRP | -0.145

Sequence | shrunken log2 fold change
RRIRKRPPRLPRPRPRPLCTPRP | 0.179
RRIRKRPPRLPRPRPRPLDAPRP | 0.748
RRIRKRPPRLPRPRPRPLHYPRP | -0.00227
RRIRKRPPRLPRPRPRPLIDPRP | 0.449
RRIRKRPPRLPRPRPRPLIWPRP | 0.761
RRIRKRPPRLPRPRPRPLKNPRP | 0.211
RRIRKRPPRLPRPRPRPLKTPRP | -0.151
RRIRKRPPRLPRPRPRPLMLPRP | 0.007
RRIRKRPPRLPRPRPRPLPPPRP | 1.01
RRIRKRPPRLPRPRPRPLQQPRP | 0.26
RRIRKRPPRLPRPRPRPLRCPRP | 0.35
RRIRKRPPRLPRPRPRPLRVPRP | 1.04
RRIRKRPPRLPRPRPRPLSLPRP | -0.131
RRIRKRPPRLPRPRPRPLSRPRP | 0.254
RRIRKRPPRLPRPRPRPLTSPRP | 0.0205
RRIRKRPPRLPRPRPRPLVMPRP | 0.432
RRIRKRPPRLPRPRPRPLYLPRP | -0.17
RRIRKRPPRLPRPRPRPLYRPRP | -0.0664
RRIRKRPPRLPRPRPRPMAAPRP | 0.751
RRIRKRPPRLPRPRPRPMCVPRP | 0.208
RRIRKRPPRLPRPRPRPMDGPRP | 0.231
RRIRKRPPRLPRPRPRPMELPRP | 0.159
RRIRKRPPRLPRPRPRPMEVPRP | 0.101
RRIRKRPPRLPRPRPRPMGEPRP | -0.0199
RRIRKRPPRLPRPRPRPMHMPRP | -0.331

Sequence | shrunken log2 fold change
RRIRKRPPRLPRPRPRPMIVPRP | 0.00271
RRIRKRPPRLPRPRPRPMKQPRP | -0.108
RRIRKRPPRLPRPRPRPMKWPRP | -0.0374
RRIRKRPPRLPRPRPRPMLPPRP | 0.349
RRIRKRPPRLPRPRPRPMNCPRP | -0.014
RRIRKRPPRLPRPRPRPMNVPRP | 0.13
RRIRKRPPRLPRPRPRPMSKPRP | 0.388
RRIRKRPPRLPRPRPRPMTCPRP | 0.0478
RRIRKRPPRLPRPRPRPMTLPRP | -0.0281
RRIRKRPPRLPRPRPRPMVAPRP | 0.629
RRIRKRPPRLPRPRPRPMVGPRP | 0.0659
RRIRKRPPRLPRPRPRPMWRPRP | 0.481
RRIRKRPPRLPRPRPRPMYMPRP | -0.103
RRIRKRPPRLPRPRPRPMYTPRP | -0.0983
RRIRKRPPRLPRPRPRPNAIPRP | 0.0998
RRIRKRPPRLPRPRPRPNDEPRP | 0.179
RRIRKRPPRLPRPRPRPNDRPRP | -0.0503
RRIRKRPPRLPRPRPRPNGFPRP | 0.49
RRIRKRPPRLPRPRPRPNHIPRP | -0.358
RRIRKRPPRLPRPRPRPNIPPRP | -0.237
RRIRKRPPRLPRPRPRPNKGPRP | 0.0232
RRIRKRPPRLPRPRPRPNKHPRP | -0.122
RRIRKRPPRLPRPRPRPNKRPRP | -0.0102
RRIRKRPPRLPRPRPRPNLMPRP | 3.86
RRIRKRPPRLPRPRPRPNNAPRP | 0.243

Sequence | shrunken log2 fold change
RRIRKRPPRLPRPRPRPNNSPRP | -0.371
RRIRKRPPRLPRPRPRPNPCPRP | 0.117
RRIRKRPPRLPRPRPRPNPDPRP | 0.383
RRIRKRPPRLPRPRPRPNQCPRP | 0.0387
RRIRKRPPRLPRPRPRPNQLPRP | -0.33
RRIRKRPPRLPRPRPRPNQNPRP | 1.18
RRIRKRPPRLPRPRPRPNRDPRP | 0.169
RRIRKRPPRLPRPRPRPNREPRP | 0.0158
RRIRKRPPRLPRPRPRPNSSPRP | -0.0248
RRIRKRPPRLPRPRPRPNTPPRP | 0.221
RRIRKRPPRLPRPRPRPNTWPRP | 0.0309
RRIRKRPPRLPRPRPRPNVKPRP | 0.0115
RRIRKRPPRLPRPRPRPNVTPRP | 0.138
RRIRKRPPRLPRPRPRPNWYPRP | -0.185
RRIRKRPPRLPRPRPRPNYPPRP | -0.175
RRIRKRPPRLPRPRPRPPAEPRP | 1.07
RRIRKRPPRLPRPRPRPPCIPRP | -0.141
RRIRKRPPRLPRPRPRPPDCPRP | 1.03
RRIRKRPPRLPRPRPRPPDRPRP | 0.862
RRIRKRPPRLPRPRPRPPFVPRP | 0.209
RRIRKRPPRLPRPRPRPPGKPRP | 0.756
RRIRKRPPRLPRPRPRPPGPPRP | 1.04
RRIRKRPPRLPRPRPRPPIYPRP | 0.0758
RRIRKRPPRLPRPRPRPPKEPRP | 0.944
RRIRKRPPRLPRPRPRPPLQPRP | 0.558
